In patent US20060194276A1 (GOVERMMENT OF THE USA AS REPRESENTED BY THE SECRETARY OF …, published 2006):

Molecular target: T1, human CD22 (human, UniProt P20273 20-847)
T1 construct: whole, on cells; Always presented on living CD22+ tumor cells (Raji for all numbers); also called CD22 antigen; target antigen
T1 sequence (looked up): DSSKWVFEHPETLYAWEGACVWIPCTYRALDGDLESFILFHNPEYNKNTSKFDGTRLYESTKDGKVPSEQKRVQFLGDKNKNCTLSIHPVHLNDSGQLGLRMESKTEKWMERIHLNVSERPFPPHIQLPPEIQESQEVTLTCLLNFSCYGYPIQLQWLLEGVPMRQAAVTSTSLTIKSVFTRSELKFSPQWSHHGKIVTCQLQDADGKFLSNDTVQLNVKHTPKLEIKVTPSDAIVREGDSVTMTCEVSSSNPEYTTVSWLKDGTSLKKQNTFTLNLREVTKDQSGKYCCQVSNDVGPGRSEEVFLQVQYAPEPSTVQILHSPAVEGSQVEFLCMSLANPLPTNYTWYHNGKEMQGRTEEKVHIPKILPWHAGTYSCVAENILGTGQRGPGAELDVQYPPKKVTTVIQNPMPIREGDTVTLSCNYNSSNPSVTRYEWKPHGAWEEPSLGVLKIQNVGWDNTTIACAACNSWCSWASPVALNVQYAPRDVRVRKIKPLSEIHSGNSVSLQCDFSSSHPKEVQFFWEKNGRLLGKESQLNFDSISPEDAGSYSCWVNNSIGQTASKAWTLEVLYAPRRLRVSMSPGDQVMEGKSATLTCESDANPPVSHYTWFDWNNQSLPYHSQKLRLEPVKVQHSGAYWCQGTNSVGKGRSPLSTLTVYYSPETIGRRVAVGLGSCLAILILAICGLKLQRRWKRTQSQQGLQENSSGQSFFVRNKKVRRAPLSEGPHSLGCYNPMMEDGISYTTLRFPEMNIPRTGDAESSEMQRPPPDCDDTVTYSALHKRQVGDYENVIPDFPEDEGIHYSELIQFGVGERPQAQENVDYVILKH
Test: flow cytometry on CD22+ Raji cells, equilibrium binding, non-linear regression
Description: Specific binding of the constructs was determined by flow cytometry using the human CD22⁺ B cell lines Raji, Ramos, Daudi and CA46. Human T cell lines Jurkat and HUT102 were used as negative controls. Cells (5×10⁵) were incubated with 100 μl of a sample containing either the scFv fragments, or control antibodies, in FACS buffer (PBS, 0.1% NaN₃, 2% FBS) for 45 min at 4° C. in round bottom 96-well microtiter plates. Cells were pelleted at 200 g at 4° C. for 5 min and washed twice with 200 μl FACS buffer. […] Background fluorescence was determined by using cells incubated with 9E10 antibody and FITC-labeled anti-mouse antibody under the same conditions. Stained cells were analyzed on a FACScan Flow Cytometer (BD Bioscience, San Jose, Calif.), and median fluorescence intensity (MFI) was calculated using the CellQuest™ software (BD Bioscience).
Affinity measurements were performed as previously described (Benedict et al., J Immunol Methods 201:223-231, 1997) with the following modifications: Varying concentrations of antibodies were incubated in triplicate with 5×10⁵ Raji cells at room temperature in FACS buffer for two hours. Bound antibodies were detected under the same conditions, as described above. After two final washing steps, cells were fixed in PBS containing 2% paraformaldehyde for 15 minutes at room temperature and analyzed by flow cytometry. […]

Kd: 2 nM
B1: murine monoclonal antibody RFB4 (antibody, V domains shown)
VH: EVQLVESGGGLVKPGGSLKLSCAASGFAFSIYDMSWVRQTPEKRLEWVAYISSGGGTTYYPDTVKGRFTISRDNAKNTLYLQMSSLKSEDTAMYYCARHSGYGSSYGVLFAYWGQGTLVTVSA
VL: DIQMTQTTSSLSASLGDRVTISCRASQDISNYLNWYQQKPDGTVKLLIYYTSILHSGVPSRFSGSGSGTDYSLTISNLEQEDFATYFCQQGNTLPWTFGGGTKLEIK
notes: also called mAb RFB4; murine mAb RFB4
